For the assay, the target named is T1, PTH receptor (PTH1R), parathyroid hormone type 1 receptor, on mouse astrocytes (mouse, UniProt P41593 27-591).
T1 construct: whole, on cells; Endogenous receptor of mouse cells; not isolated or expressed recombinantly
T1 sequence (looked up): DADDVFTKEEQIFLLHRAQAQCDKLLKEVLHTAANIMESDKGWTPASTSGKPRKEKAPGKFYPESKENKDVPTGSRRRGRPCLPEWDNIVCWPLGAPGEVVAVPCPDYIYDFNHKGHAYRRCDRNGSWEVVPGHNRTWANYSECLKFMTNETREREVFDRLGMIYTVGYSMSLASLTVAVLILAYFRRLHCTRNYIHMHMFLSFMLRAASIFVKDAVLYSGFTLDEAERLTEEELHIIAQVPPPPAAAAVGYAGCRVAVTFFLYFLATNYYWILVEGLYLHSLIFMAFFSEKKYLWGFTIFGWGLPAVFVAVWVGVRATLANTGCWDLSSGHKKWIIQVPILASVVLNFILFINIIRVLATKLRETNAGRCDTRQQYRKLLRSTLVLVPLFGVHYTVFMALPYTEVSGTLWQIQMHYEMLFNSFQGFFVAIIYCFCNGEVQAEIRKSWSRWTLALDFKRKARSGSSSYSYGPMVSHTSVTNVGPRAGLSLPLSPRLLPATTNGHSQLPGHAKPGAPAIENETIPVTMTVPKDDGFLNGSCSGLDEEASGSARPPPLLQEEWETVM
Briefly: summary sentence of the example; inferred from Biotin-PTH1-34 co-staining with astrocytes, PTH1R expression and signalling in cultured astrocytes.

B1: Parathyroid hormone (human) PTH1-34 (TOCRIS Bioscience, Cat #3011/1) (peptide, UniProt P01270 32-65, looked up)
peptide: SVSEIQLMHNLGKHLNSMERVEWLRKKLQDVHNF
notes: range 1-34; Residues 1-34 count on mature PTH, not on the precursor; also called hPTH1-34; Teriparatide
In the case of B1, the binding result is listed as “binds”.

The values above are taken from patent US20240299504A1, “COMPOSITIONS AND METHODS FOR TREATING ALZHEIMERS DISEASE” (priority 2023, published 2024).
